Source: paper PMC5101896, “Enhanced cellular uptake of lactosomes using cell-penetrating peptides” (Science and Technology of Advanced Materials, 2016)
No end group written: not given here.

Key:
[1] = Particle size and polydispersity by dynamic light scattering (DLS); type: physicochemical; conditions: Zetasizer Nano ZSP, n = 3, mean ± standard deviation; for Diameter: lactosomes in saline
Procedure: (§1) A chloroform solution containing the (PSar25)3-block-PLLA35 (100 nmol, […]) with 4 mol% of TPP (Wako Pure Chemical, Osaka, Japan), 2 mol% of ICG-PLLA34, and 10 mol% maleimide-PSar56-PLLA30 was evaporated under reduced pressure to remove the solvent, forming a thin film on the surface of the glass test tube. Saline (Otsuka normal saline, Otsuka Pharmaceutical Factory, Tokushima, Japan) (50 μl) was added to the test tube, which was then placed at room temperature for 5 min. Then, 50 μl of the saline solution containing 50 nmol CPP and 10 nmol Tris(2-carboxyethyl)phosphine hydrochloride (Nacalai Tesque, Kyoto, Japan) was added to the solution (50 μl) in the test tube and stirred for 12 h at room temperature. In this procedure, lactosome formation and TPP encapsulation by the lactosome were expected. At the same time, maleimide-PSar56-PLLA30 in the lactosome is expected to react with CPP, which contains a cysteine residue at its C-terminus (Table 1). This lactosome mixture was diluted with 400 μl of saline, and passed through a 0.1 μm syringe filter (Membrane Solutions, Dallas, USA) to remove large aggregates. Low molecular weight molecules were excluded from the mixture using Amicon Ultra-0.5 (MWCO 50 kDa, Merck Millipore, Darmstadt, Germany). To analyze concentrations of CPP, TPP and ICG-PLLA34, absorption spectra of the lactosome complexes were measured using a BioSpec spectrometer (Shimadzu, Kyoto, Japan). The particle size, size distribution, polydispersity index (PDI), and zeta potential were measured by Zetasizer Nano ZSP (Malvern Instruments, Malvern, UK).
(§2) The particle sizes of lactosome complexes were measured by dynamic light scattering (DLS). The average particle sizes of the CPP-modified lactosomes were 36–49 nm, which were slightly larger than the unmodified lactosomes (34.2 nm) (Table 2, Figure 1(b)). The zeta potential value of CPP-modified lactosomes (e.g. Pep1-modified lactosome: 1.7 mV, EB1-modified lactosome: 1.6 mV) was higher than that of the unmodified lactosomes (–4.6 mV) (Table 2). The increase in the zeta potential seems to be due to positively charged CPPs.

[2] = Zeta potential by laser Doppler electrophoresis; type: physicochemical; conditions: Zetasizer Nano ZSP, n = 3, mean ± standard deviation
Procedure: as §1, §2

CHO cells = experiment: Cellular uptake of ICG-labeled CPP-modified lactosomes; type: cell-based, Chinese hamster; conditions: for Cellular uptake level (in words): 10 nmol lactosome complexes, ICG fluorescence intensity divided by cell viability; for Cellular localization (co-localization with LysoTracker Green): 2 μM LysoTracker Green, further 3 h incubation; for ICG fluorescence in cells by fluorescence microscopy, compared to lactosomes without CPP: after washing
Procedure: CHO cells were cultured at 37°C under 5% CO2 in Ham’s F12 medium (Wako Pure Chemical) supplemented with 10% fetal bovine serum (FBS, Nichirei Biosciences, Tokyo Japan), 100 units ml^–1 penicillin (Gibco; Thermo Fisher Scientific, Waltham, Massachusetts, USA), and 100 μg ml^–1 streptomycin (Gibco; Thermo Fisher Scientific). The cells were seeded at a density of 2 × 10^4 cells/well in the 96-well plate, and incubated at 37°C under 5% CO2 overnight. The cells were then incubated at 37°C for 2 h with ICG-labeled lactosomes modified with CPPs (Tat, PTD4, DPV3, MPG^ΔNLS, R9MPG, Pep1, or EB1) dissolved in 200 μl T buffer. The lactosome solution was exchanged for Ham’s F12 medium before the fluorescence imaging. The cellular fluorescence images were obtained by fluorescence microscopy using an Olympus IX71 microscope (Olympus, Tokyo, Japan) with a 40 × objective lens and a U-DM-CY7–3 mirror unit.
LysoTracker Green (Thermo Fisher Scientific) was used for investigating cellular localization of CPP-modified lactosomes. After incubation of the cells with CPP-modified ICG-labeled lactosomes, the lactosome solution was exchanged with Ham’s F12 medium containing 2 μM LysoTracker Green. The cells were further incubated for 3 h. Then, the cell medium was replaced with Ham’s F12 medium, and fluorescence images were obtained.
To evaluate the cellular uptake of the lactosome complexes, the ICG fluorescence images were obtained using an IVIS spectrum system (Xenogen, Hopkinton, Massachusetts USA) with a filter set specific for ICG (excitation at 745 nm and emission at 840 ± 10 nm). The ICG fluorescence intensity was estimated from the photon counts of the images. Then, the cell medium was replaced with solution containing 10 μl of Cell Counting Kit-8 solution (Dojindo, Kumamoto, Japan) and 90 μl of Ham’s F12 medium, and the cells were incubated for an additional 1.5 h. After incubation, the cell viability was measured by absorbance at 450 nm using the microplate reader SunriseR (Tecan Japan, Kanagawa, Japan). Lactosome uptake levels were calculated by dividing ICG fluorescence intensity by cell viability of each well.

NCI-N87 cells = experiment: Photoinduced cell killing (PDT treatment) with CPP/TPP-lactosomes, Cell Counting Kit-8; type: cell-based, human; conditions: 1.5 h at 37°C in T buffer, irradiation 340–390 nm, 200 mW cm^–2, 100 s, then 24 h culture, n = 3
Procedure: NCI-N87 cells were cultured at 37°C under 5% CO2 in RPMI1640 medium (Wako Pure Chemical) supplemented with 10% FBS, 100 units ml^–1 penicillin, and 100 μg ml^–1 streptomycin. NCI-N87 cells were seeded at a density of 4 × 10^4 cells/well in a 96-well plate, and incubated at 37°C for two days before treatment with the lactosome complex. CHO cells were cultured and seeded as described above. The effect of treatment with the TPP-loaded lactosomes and light on cell viability, which is related to PDT efficacy, was evaluated as follows: TPP-loaded lactosomes modified with CPPs (Pep1 or EB1) dissolved in 200 μl of T buffer (20 mM HEPES-KOH (pH 7.4), 115 mM NaCl, 5.4 mM KCl, 1.8 mM CaCl2, 0.8 mM MgCl2, and 13.8 mM glucose) were added to NCI-N87 cells (70% confluent) in the 96-well plate. The cells were incubated at 37°C for 1.5 h. After the lactosome solution was exchanged for T buffer, the cells were irradiated at 340–390 nm at 200 mW cm^–2 for 100 s. After irradiation, the cells were further incubated for 24 h at 37°C under 5% CO2 in the medium. Then, the cell medium was exchanged for the solution containing 10 μl of Cell Counting Kit-8 solution and 90 μl of RPMI1640 medium, and the cells were incubated at 37°C for 2 h. The cell viability was measured by the absorbance at 450 nm using a microplate reader SunriseR. […]

NCI-N87 tumor = experiment: In vivo ICG fluorescence imaging of tumor-bearing mice; parameters: species or system mice (BALB/c nu/nu); conditions: tail vein injection, imaging 24 h after injection, IVIS; three mice
Procedure: (§3) Six-week-old male nude mice (BALB/c nu/nu) were purchased from Charles River. Five weeks before the imaging, PANC-1 cells (1 × 10^7) suspended in 100 μl of 50% Matrigel Matrix (Corning Life Sciences, Corning, New York USA) in phosphate buffered saline was subcutaneously inoculated into the front left leg of mice. Two weeks after the first transplantation, NCI-N87 cells (4 × 10^6) were suspended in the Matrigel solution and subcutaneously inoculated into the front right leg of mice. Three weeks after the second transplantation, CPP/TPP/ICG-lactosomes were injected into the tumor-bearing mouse via the tail vein. After 24 h, ICG fluorescence images were taken using the IVIS spectrum system (excitation at 745 nm and emission at 840 ± 10 nm, field of view = 12.5 cm (width and height), f/stop = 2, binning = 4, and exposure time at 3 s). During the imaging process, the mice were anesthetized using 3.0% isoflurane gas in oxygen flow (0.5 l min^–1).

PANC-1 tumor = experiment: as above; parameters: species or system mice (BALB/c nu/nu); conditions: tail vein injection, imaging 24 h after injection, IVIS; three mice
Procedure: as §3

Substance | Diameter [1] | PDI (polydispersity index) [1] | Zeta potential [2] | other results
GALFLGFLGAAGSTMGAWSQPKSKRKV-C [MPG^ΔNLS, A3B-type lactosome modified with the CPP MPG^ΔNLS via maleimide-PSar56-PLLA30] | 49.1±0.5 nm | 0.29±0.02 | −2.9±0.6 mV | 
KETWWETWWTEWSQPKKKRKV-C [Pep1, A3B-type lactosome modified with the CPP Pep1 via maleimide-PSar56-PLLA30] | 37.7±0.6 nm | 0.13±0.02 | 1.7±0.1 mV | Cellular uptake level relative to the EB1-modified lactosomes (CHO cells; 10 nmol lactosome complexes in T buffer, 2 h, 37°C, ICG fluorescence intensity (IVIS, ex 745 nm, em 840 nm) divided by cell viability (Cell Counting Kit-8), mean, n = 4): 0.62; Cellular uptake level (in words) (CHO cells; 2 h, 37°C): highly internalized; Cellular localization (co-localization with LysoTracker Green) (CHO cells): localized mainly in acidic organelles, including endosomes and lysosomes; ICG fluorescence in cells by fluorescence microscopy, compared to lactosomes without CPP (CHO cells; 2 h, 37°C): significantly strong ICG fluorescence
KETWWETWWTEWSQPKKKRKV-C [Pep1/TPP-lactosomes, Pep1-modified lactosome loaded with the photosensitizer TPP] |  |  |  | Killing of NCI-N87 cells compared to the experiment without CPP/TPP-lactosomes (NCI-N87 cells): 67%
LIRLWSHLIHIWFQNRRLKWKKK-C (LIRLWSHLIHIWFQNRRLKWKKKC; also: C-terminal Cys linked via maleimide to PSar56-PLLA30 (lactosome)) [EB1, A3B-type lactosome modified with the CPP EB1 via maleimide-PSar56-PLLA30] | 38.3±0.2 nm | 0.12±0.01 | 1.6±0.3 mV | Cellular uptake level (in words) (CHO cells; 2 h, 37°C): most abundantly internalized; Cellular localization (co-localization with LysoTracker Green) (CHO cells): localized mainly in acidic organelles, including endosomes and lysosomes; ICG fluorescence in cells by fluorescence microscopy, compared to lactosomes without CPP (CHO cells; 2 h, 37°C): significantly strong ICG fluorescence
LIRLWSHLIHIWFQNRRLKWKKK-C [EB1/TPP-lactosomes, EB1-modified lactosome loaded with the photosensitizer TPP] |  |  |  | Killing of NCI-N87 cells compared to the experiment without CPP/TPP-lactosomes (NCI-N87 cells): 89%
LIRLWSHLIHIWFQNRRLKWKKK-C [EB1/TPP/ICG-lactosomes, lactosome complex containing EB1, TPP, and ICG] |  |  |  | Accumulation in NCI-N87 tumor (ICG fluorescence) (NCI-N87 tumor): accumulated in NCI-N87 tumors and liver; Accumulation in PANC-1 tumor (ICG fluorescence) (PANC-1 tumor): only slight ICG fluorescence was detected
RKKRRRESRKKRRRES-C (RKKRRRESRKKRRRESC; also: C-terminal Cys linked via maleimide to PSar56-PLLA30 (lactosome)) [DPV3, A3B-type lactosome modified with the CPP DPV3 via maleimide-PSar56-PLLA30] | 37.0±0.4 nm | 0.12±0.01 | −3.7±0.3 mV | 
RRRRRRRRRGALFLAFLAAALSLMG-C (RRRRRRRRRGALFLAFLAAALSLMGC; also: C-terminal Cys linked via maleimide to PSar56-PLLA30 (lactosome)) [R9MPG, A3B-type lactosome modified with the CPP R9MPG via maleimide-PSar56-PLLA30] | 43.9±1.5 nm | 0.22±0.01 | −2.7±0.9 mV | 
YARAAARQARA-C [PTD4, A3B-type lactosome modified with the CPP PTD4 via maleimide-PSar56-PLLA30] | 37.0±0.4 nm | 0.14±0.02 | −4.2±0.3 mV | 
YGRKKRRQRRR-C [Tat, A3B-type lactosome modified with the CPP Tat via maleimide-PSar56-PLLA30] | 36.2±0.3 nm | 0.10±0.01 | −3.6±0.1 mV | 
